Earlier results on two substances are cited in publication PMC4747809.

pKd: −log10 of the molar value.

In data set [1] the target is iC3b/C3dg TED (iC3b, C3dg) (Homo sapiens) (UniProt P01024).
For data set [2], the target named is iC3b/C3dg iC3b, C3dg (Homo sapiens) (UniProt P01024).
Chain of iC3b/C3dg iC3b, C3dg (Homo sapiens) (P01024 955-1303): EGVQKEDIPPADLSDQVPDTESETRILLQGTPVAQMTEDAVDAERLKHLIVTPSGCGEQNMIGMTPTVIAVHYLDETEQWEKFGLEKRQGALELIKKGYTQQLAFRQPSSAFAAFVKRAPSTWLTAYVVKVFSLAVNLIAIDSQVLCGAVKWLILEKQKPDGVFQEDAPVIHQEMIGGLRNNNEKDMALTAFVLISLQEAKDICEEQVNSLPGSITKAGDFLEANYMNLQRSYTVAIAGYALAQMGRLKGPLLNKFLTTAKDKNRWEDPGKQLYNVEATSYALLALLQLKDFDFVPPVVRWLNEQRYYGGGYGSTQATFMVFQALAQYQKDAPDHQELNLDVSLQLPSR

Chain of Complement receptor 2 (CR2) domains 1-4 (P20023 21-273): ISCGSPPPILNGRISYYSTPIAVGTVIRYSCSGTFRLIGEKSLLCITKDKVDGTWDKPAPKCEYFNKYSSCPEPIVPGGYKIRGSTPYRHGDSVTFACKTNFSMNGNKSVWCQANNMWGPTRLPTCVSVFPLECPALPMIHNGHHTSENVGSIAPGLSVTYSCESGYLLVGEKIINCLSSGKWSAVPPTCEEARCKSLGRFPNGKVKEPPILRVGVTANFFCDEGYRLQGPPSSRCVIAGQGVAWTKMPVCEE
Chain of iC3b/C3dg TED (iC3b, C3dg) (Homo sapiens) (P01024 955-1303): as the sequence (P01024 955-1303) above
Chain of Factor H (FH) domains 19-20 (P08603 1107-1231): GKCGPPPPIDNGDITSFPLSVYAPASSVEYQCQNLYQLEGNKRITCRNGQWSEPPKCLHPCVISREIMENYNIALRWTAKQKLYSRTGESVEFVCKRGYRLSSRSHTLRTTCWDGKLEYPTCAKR

For “Complement receptor 2 (CR2) domains 1-4 (from UniProt P20023)”, the pKd in data set [1] is 6.30.
Take “Factor H (FH) domains 19-20 (from UniProt P08603)”: in data set [2], the pKd was 5.30.
